Columns and labels:
Assay in all cases: cell_activity
ssRAG2.1 right TALEN = conditions: pair
ssTp53 right TALEN = conditions: pair
[1] = tested on: Kiss1.1a (tilapia) right TALEN; conditions: pair, tilapia Kiss20; range 48-91; Kiss1.1a locus
btGDF83.6-G left TALEN = conditions: pair, listed as btGDF83.6N
ssEIF4GI14.1 right TALEN = conditions: pair
btACAN12 left TALEN = conditions: pair, cattle fibroblasts
btACAN12 right TALEN = conditions: pair, cattle fibroblasts
btGDF83.6 right TALEN = conditions: pair, listed as btGDF83.6N
ssDMDE6 left TALEN = conditions: pair, pig fibroblasts
ssDMDE6 right TALEN = conditions: pair, pig fibroblasts
ssDAZL3.1 right TALEN = conditions: pair
ssRAG2.1 left TALEN = conditions: pair
caCLPG1.1 left TALEN = conditions: pair caCLPG1.1
btRosa1.2 right TALEN = conditions: pair
caCLPG1.1 right TALEN = conditions: pair; 0/14 colonies confirmed (Table 6)
ssGDF83.6 right TALEN = conditions: pair, 3/90
ssAPC14.2 left TALEN = conditions: pair
ssGDF83.6 left TALEN = conditions: pair, 3/90
ssSRY3.2 right TALEN = conditions: pair
ssEIF4GI14.1 left TALEN = conditions: pair
ssKissR3.2 right TALEN = conditions: pair
[2] = tested on: Kiss1.1a (tilapia) left TALEN; conditions: pair, tilapia Kiss20; range 48-91; Kiss1.1a locus
btRosa1.2 left TALEN = conditions: pair
ssLDLR2.1 right TALEN = conditions: pair LDLRE2.1, pig male fibroblasts
caFecB6.1 left TALEN = conditions: pair
ssLDLR2.1 left TALEN = conditions: pair LDLRE2.1, pig male fibroblasts
ssTp53 left TALEN = conditions: pair
ssKissR3.2 left TALEN = conditions: pair
ssAPC14.2 right TALEN = conditions: pair
caFecB6.1 right TALEN = conditions: pair
ssSRY3.2 left TALEN = conditions: pair
btGDF83.1 left TALEN = conditions: pair, cattle fibroblasts
ssDAZL3.1 left TALEN = conditions: pair
ssP65.8 right TALEN = conditions: pair
ssP65.8 left TALEN = conditions: pair
btGDF83.1 right TALEN = conditions: pair, cattle fibroblasts
ssDMDE7.1 left TALEN = conditions: pair, pig fibroblasts
ssDMDE7.1 right TALEN = conditions: pair, pig fibroblasts

“ATTCAAAAGCAGCTTAG (double strand) [RAG2.1 right half-site (sense strand)]” showed an activity (ssRAG2.1 right TALEN) of 47 % HDR day 3.

For “AAGTCAGAGTACATG (double strand) [Tp53 right half-site (sense strand)]”, the activity (ssTp53 right TALEN) was 22 % HDR day 3.

With “ACAATGGCTACATTTAC (double strand) [Kiss1.1a right half-site (sense strand)]” the activity (% mosaic somatic mutation) [1] was 91.

Sequence “GCTCTGGAGAATGT (double strand) [GDF83.6-G left half-site]” has an activity (btGDF83.6-G left TALEN) of 18 % HDR day 3.

Sequence “AGCAACCGTGGGCCCCCA (double strand) [EIF4GI14.1 right half-site (sense strand)]” has an activity (ssEIF4GI14.1 right TALEN) of 52 % HDR day 3.

For “CCCTCTTCCTTTCCTCCAGGGATCCCTCCTACATGGCCTCCCACTGGAGAAGCAACAGAGGAGCACACAGA (double strand) [ACAN12 target]”, the activity (% modified day 3) (btACAN12 left TALEN) was 29 and the activity (% modified day 3) (btACAN12 right TALEN) was 29.

“AAAAGTATCCTCAT (double strand) [GDF83.6 right half-site (sense strand)]” showed an activity (btGDF83.6 right TALEN) of 18 % HDR day 3.

“TCTATACCTAGGTCAAAAATGTAATGAAGAAAGTATCAGTTAGGCATAGAGAAACTACTGGA (double strand) [DMD exon 6 target]” showed an activity (% modified day 3) (ssDMDE6 left TALEN) of 25 and an activity (% modified day 3) (ssDMDE6 right TALEN) of 25.

In the case of “ATATGGTTCAGTAAAAG (double strand) [DAZL3.1 right half-site (sense strand)]”, the activity (ssDAZL3.1 right TALEN) is reported as 25 % HDR day 3.

Sequence “ACCTTCCTCCTCTCCGCT (double strand) [RAG2.1 left half-site]” has an activity (ssRAG2.1 left TALEN) of 47 % HDR day 3.

With “GAGAGCGCAGGAATCCAGG (double strand) [CLPG1.1 left half-site]” the activity (caCLPG1.1 left TALEN) was 4 % HDR day 3.

“AGGTAGGGTGGAGAGAG (double strand) [Rosa1.2 right half-site (sense strand)]” showed an activity (btRosa1.2 right TALEN) of 45 % HDR day 3.

Work on “GCTGGGACCACCTGTCAG (double strand) [CLPG1.1 right half-site (sense strand)]” yielded an activity (caCLPG1.1 right TALEN) of 4 % HDR day 3.

With “ACAAAAATACCCTCAC (double strand) [ssGDF83.6 right half-site (sense strand)]” the activity (% HDR+ colonies) (ssGDF83.6 right TALEN) was 3.

“GGAAGAAGTATCAGCCAT (double strand) [APC14.2 left half-site]” gave an activity (ssAPC14.2 left TALEN) of 48 % HDR day 3.

Work on “ACTGCTCTGGAGAGT (double strand) [ssGDF83.6 left half-site]” yielded an activity (% HDR+ colonies) (ssGDF83.6 left TALEN) of 3.

Work on “ATTAATGGCCTGAACCT (double strand) [SRY3.2 right half-site (sense strand)]” yielded an activity (ssSRY3.2 right TALEN) of 30 % HDR day 3.

In the case of “CCGTCCTTTGCCAACCTT (double strand) [EIF4GI14.1 left half-site]”, the activity (ssEIF4GI14.1 left TALEN) is reported as 52 % HDR day 3.

“TGGGCGACTTCATGTGC (double strand) [KissR3.2 right half-site (sense strand)]” showed an activity (ssKissR3.2 right TALEN) of 53 % HDR day 3.

“ACAACCCTCTCAGCCTT (double strand) [Kiss1.1a left half-site]” gave an activity (% mosaic somatic mutation) [2] of 91.

For “CTCGCATTGCCCACT (double strand) [Rosa1.2 left half-site]”, the activity (btRosa1.2 left TALEN) was 45 % HDR day 3.

“AGTGCAAGGACGGGTCCG (double strand) [LDLR2.1 right half-site (sense strand)]” was tested, and the activity (% modified day 3) (ssLDLR2.1 right TALEN) was 19.

“ACAGAGGAGGCCAGCTGGTT (double strand) [FecB6.1 left half-site]” showed an activity (caFecB6.1 left TALEN) of 17 % HDR day 3.

“CTCCTACAAGTGGATTT (double strand) [LDLR2.1 left half-site]” showed an activity (% modified day 3) (ssLDLR2.1 left TALEN) of 19.

“GGCACCCGTGTCCGCGC (double strand) [Tp53 left half-site]” showed an activity (ssTp53 left TALEN) of 22 % HDR day 3.

Work on “GCTCTACTCTACCCC (double strand) [KissR3.2 left half-site]” yielded an activity (ssKissR3.2 left TALEN) of 53 % HDR day 3.

With “ACAGAAATTCTGGGTC (double strand) [APC14.2 right half-site (sense strand)]” the activity (ssAPC14.2 right TALEN) was 48 % HDR day 3.

“ATATCAGACGGTGTTGATG (double strand) [FecB6.1 right half-site (sense strand)]” gave an activity (caFecB6.1 right TALEN) of 17 % HDR day 3.

With “ATACATTTTACACACATAT (double strand) [SRY3.2 left half-site]” the activity (ssSRY3.2 left TALEN) was 30 % HDR day 3.

With “GTGATGAACACTCCACAGAATCT (double strand) [GDF83.1 left half-site]” the activity (% modified day 3) (btGDF83.1 left TALEN) was 17.

“GGATGAAACCGAAATT (double strand) [DAZL3.1 left half-site]” showed an activity (ssDAZL3.1 left TALEN) of 25 % HDR day 3.

In the case of “CTTCTGAGTCAGATC (double strand) [P65.8 right half-site (sense strand)]”, the activity (ssP65.8 right TALEN) is reported as 18 % HDR day 3.

“CTCCTCCATTGCGGA (double strand) [P65.8 left half-site]” gave an activity (ssP65.8 left TALEN) of 18 % HDR day 3.

“CTCTAACTGTGGATTTTGA (double strand) [GDF83.1 right half-site (sense strand)]” was tested, and the activity (% modified day 3) (btGDF83.1 right TALEN) was 17.

Work on “GCCACACAACGACTGGAACATGCATTCAACATCGCCAAGTATCAGTTAGGCATAGAGAAACTACTGGATCCTGAAGGTT (double strand) [DMD exon 7 target]” yielded an activity (% modified day 3) (ssDMDE7.1 left TALEN) of 27 and an activity (% modified day 3) (ssDMDE7.1 right TALEN) of 27.

— patent US20200017877
